Experimental data from patent US20110318339A1 (FABRUS, published 2011).
Substitutions are numbered along the chain they refer to. Names and notes keep the numbering of the source.

Assays:
[1] = target: full-length human DLL4 expressed on the surface of CHO cells (human, UniProt Q9NR61 27-685); assay: cell-based or functional assay
[2] = target: T1, recombinant mouse DLL4 (Cat# 1389-D4-050/CF, R&D Systems) (mouse, UniProt Q9JI71 28-525); assay: SPR, mDLL4 on chip, row 'Surface 1' (third)
T1 construct: Bought protein; also called mDLL4

[3] = target: T1, recombinant mouse DLL4 (Cat# …); assay: SPR, mDLL4 on chip, average of three surfaces
[4] = target: T1, recombinant mouse DLL4 (Cat# …); assay: SPR, mDLL4 on chip, row 'Surface 1' (second)
[5] = target: T2, recombinant human DLL4 (Cat# 1506-D4/CF, R&D Systems) (human, UniProt Q9NR61 27-529); assay: SPR (ProteOn), hDLL4 amine-coupled on chip
T2 construct: Bought protein; also called hDLL4; rHuman DLL4
Procedure, shortened: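 SPR on a ProteOn GLM chip, with DLL4 amine-coupled at three surface densities. Fab analytes were run as 3-fold serial dilutions from 1 μM in 10 mM HEPES pH 7.4, 150 mM NaCl, 0.01% Tween-20, 0.1 mg/ml BSA at 25° C. Responses from each surface were globally fit for binding constants.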

[6] = target: T2, recombinant human DLL4 (Cat# …); assay: ELISA, DLL4 coated, Fab 2.22 nM
Procedure, shortened: (§1)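 Binding of Fab to the coated plate is measured by absorbance at 450 nm. Triplicate serial dilutions incubate 1 h at room temperature after 1% BSA/TBST blocking, and HRP-labelled anti-human kappa or lambda antibody (1:1000, 30 min) with 2-min TMB development reports bound Fab.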

[7] = target: T2, recombinant human DLL4 (Cat# …); assay: ELISA, DLL4 coated, Fab 20 nM
Procedure, shortened: as §1

[8] = target: T1, recombinant mouse DLL4 (Cat# …); assay: SPR, mDLL4 on chip, row 'Surface 1' (first)
[9] = target: T2, recombinant human DLL4 (Cat# …); assay: ELISA, DLL4 coated, Fab 6.67 nM
Procedure, shortened: as §1

[10] = target: T2, recombinant human DLL4 (Cat# …); assay: ELISA, DLL4 coated, Fab 0.74 nM
Procedure, shortened: as §1

[11] = target: T3, full-length human DLL4 expressed on the surface of CHO cells (human, UniProt Q9NR61 26-685); assay: flow cytometry, 250 nM biotinylated Notch-Fc on CHO-DLL4 cells, no Fab (0 nM control)
T3 construct: also called CHO-DLL4; DLL4-expressing CHO cells
Method: Streptavidin-PE was used as a detection molecule.
Fab was 5-fold serially diluted in 2% BSA/PBS from a starting concentration of 50 nM. […] PE-labeled streptavidin (Cat# 21627, Pierce-Thermo Scientific) was then added to a final dilution of 1:5 followed by incubation for 10 minutes at room temperature. The cells were then washed twice in 2% BSA/PBS and analyzed by flow cytometry on a BD FACSAria.

T1 sequence (Q9JI71 28-525 limits assumed): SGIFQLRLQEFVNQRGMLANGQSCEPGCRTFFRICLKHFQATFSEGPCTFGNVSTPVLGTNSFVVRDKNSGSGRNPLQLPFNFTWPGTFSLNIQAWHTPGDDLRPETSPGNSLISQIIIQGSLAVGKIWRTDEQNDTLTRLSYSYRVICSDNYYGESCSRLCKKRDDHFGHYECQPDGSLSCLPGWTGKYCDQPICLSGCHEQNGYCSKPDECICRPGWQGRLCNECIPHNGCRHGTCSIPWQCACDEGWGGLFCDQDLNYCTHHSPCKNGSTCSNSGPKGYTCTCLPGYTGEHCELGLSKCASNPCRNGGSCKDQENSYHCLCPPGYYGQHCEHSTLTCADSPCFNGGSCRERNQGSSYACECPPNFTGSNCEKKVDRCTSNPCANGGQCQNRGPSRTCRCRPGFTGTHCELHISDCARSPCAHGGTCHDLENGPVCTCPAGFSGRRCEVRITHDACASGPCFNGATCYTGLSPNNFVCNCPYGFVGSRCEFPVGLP

B1: IgG H:APFF VLTH & L:NDH LS (antibody, V domains shown)
VH: QVQLVQSGAEVKKPGASVKVSCKASGYTFTSYYMHWVRQAPGQGLEWMGIGLPTGHSTSYAQKFQGRVTMTRDTSTSTVYMELSSLRSEDTAVYYCAREEYAPFSAEYFQFWGQGTLVTVSS
VL: EIVLTQSPATLSLSPGERATLSCRASQNVDHYLAWYQQKPGQAPRLLIYDALNRSTGIPARFSGSGSGTDFTLTISSLEPEDFAVYYCQQRSNWPPWTFGQGTKVEIKR
IC50, Notch-activation (luciferase reporter), T98G cells with CHO-DLL4 [1]: ~6 nM
fold efficiency against Fab H:APFF VLTH & L:NDH LS, Notch-activation (luciferase reporter) [1]: 30 fold

B2: Fab VH1-46_IGHD6-6*01_IGHJ1*01 S102A/S103P/S104F/H111F I51V/N52L/S54T/G56H & L6_IGKJ1*01 S28N/S30D/S31H S52L/A55S (Fab, V domains shown)
VH: B1 VH with G51V
VL: B1 VL
notes: Fab made in E. coli: VH on CH1 with His6 and Flag tags (Plasmid A), VL on kappa CL (Plasmid C); also called H: APFF VLTH & L: NDH LS
Kd [2]: 10.9 nM
koff [2]: 0.00188 s⁻¹
kon [2]: 173000 M⁻¹ s⁻¹
Kd [3]: 9.7 nM
koff [3]: 0.00192 s⁻¹
kon [3]: 208000 M⁻¹ s⁻¹
Kd [4]: 10.8 nM
koff [4]: 0.00178 s⁻¹
kon [4]: 165000 M⁻¹ s⁻¹
Kd [5]: 1.7 nM
koff [5]: 0.00109 s⁻¹
kon [5]: 684000 M⁻¹ s⁻¹
ELISA absorbance at 450 nm [6]: 0.523 A450
ELISA absorbance at 450 nm [7]: 0.91 A450
Kd [8]: 7.3 nM
koff [8]: 0.0021 s⁻¹
kon [8]: 287000 M⁻¹ s⁻¹
ELISA absorbance at 450 nm [9]: 0.747 A450
ELISA absorbance at 450 nm [10]: 0.263 A450

B3: biotinylated Notch-Fc (rHuman Notch-1/Fc Chimera, cat# 3647-TK-050, R&D Systems) (Fc fusion)
chain: ARGPRCSQPGETCLNGGKCEAANGTEACVCGGAFVGPRCQDPNPCLSTPCKNAGTCHVVDRRGVADYACSCALGFSGPLCLTPLDNACLTNPCRNGGTCDLLTLTEYKCRCPPGWSGKSCQQADPCASNPCANGGQCLPFEASYICHCPPSFHGPTCRQDVNECGQKPGLCRHGGTCHNEVGSYRCVCRATHTGPNCERPYVPCSPSPCQNGGTCRPTGDVTHECACLPGFTGQNCEENIDDCPGNNCKNGGACVDGVNTYNCRCPPEWTGQYCTEDVDECQLMPNACQNGGTCHNTHGGYNCVCVNGWTGEDCSENIDDCASAACFHGATCHDRVASFYCECPHGRTGLLCHLNDACISNPCNEGSNCDTNPVNGKAICTCPSGYTGPACSQDVDECSLGANPCEHAGKCINTLGSFECQCLQGYTGPRCEIDVNECVSNPCQNDATCLDQIGEFQCICMPGYEGVHCEVNTDECASSPCLHNGRCLDKINEFQCECPTGFTGHLCQ
modifications: biotinylated with EZ-Link NHS-Biotin Reagent (sites not given)
notes: Bought Notch-1/Fc chimera; Fc part of the bought chimera not given
signal of Notch-Fc bound to CHO-DLL4 (streptavidin-PE) [11]: 531
